Data: the DeepSol protein solubility set

Assay: soluble on expression in E. coli; label from the status in PepcDB or PDB records

Sequence	soluble on expression in E. coli
MAFLLALDQGTTSSRAILFTLEGRPVAVAKREFRQLYPKPGWVEHDPLEIWETTLWAAREVLRRAGAEAGEVLALGITNQRETTLLWDRKTGKPLHNAIVWQDRRTTPLCEALRAKGLEPLFRERTGLLFDPYFSGTKLVWLLENVPGLKARAEGGGVAFGTVDTWLIWNLTGGKVHATDPTNASRTLLFNLHTLAWDPELLEALGIPAALLPEVRPSDGDFGETLPELLGAPVPIRGVLGDQQAALFGQAALGGGEGKCTYGTGAFLLLNTGKRPVLSEKGLLATVAWSLGGRATYALEGSLFVAGAAVGWLKEVGLIRESAEVEALAASVEDTGDVYFVPAFTGLGAPYWDPYARGTLLGLTRGTSRAHLARAALEGVAFQVRDVVLAMEEEAGVRLKVLKADGGMAQNRLFLKIQADLLGVPVAVPEVTETTALGAALMAGVGAGALSPEDVAGRFREAERFLPTMPEGRREALYRRWREAVERAKGWAREG	soluble
DIISVALKRHSTKAFDASKKLTAEEAEKIKTLLQYSPSSTNSQPWHFIVASTEEGKARVAKSAAGTYVFNERKMLDASHVVVFCAKTAMDDAWLERVVDQEEADGRFNTPEAKAANHKGRTYFADMHRVDLKDDDQWMAKQVYLNVGNFLLGVGAMGLDAVPIEGFDAAILDEEFGLKEKGFTSLVVVPVGHHSVEDFNATLPKSRLPLSTIVTEC	soluble
MGSDKIHHHHHHMIMIRQLTPADFDAVITLGEIVHGSGYMDIAELTAIYHKGIKNGINANFVALENEQLIGFRLTYAAGQWPQDQWCTVDKWGVKFEDVCYFKSNTIAESGRGQGLGGKLLAASKAAVIAQGAKAGVSHLWQQSPNNAAVRYFTKAGGKLIKQHPQRWHQRYMGDDYICVLCGEDCHCVACEMLLLF	not soluble
VFPSSVYVPDEWEVSREKITLLRELGQGSFGMVYEGNARDIIKGEAETRVAVKTVNESASLRERIEFLNEASVMKGFTCHHVVRLLGVVSKGQPTLVVMELMAHGDLKSYLRSLRPEAENNPGRPPPTLQEMIQMAAEIADGMAYLNAKKFVHRDLAARNCMVAHDFTVKIGDFGMTRDIYETDYYRKGGKGLLPVRWMAPESLKDGVFTTSSDMWSFGVVLWEITSLAEQPYQGLSNEQVLKFVMDGGYLDQPDNCPERVTDLMRMCWQFNPNMRPTFLEIVNLLKDDLHPSFPEVSFFHSEENK	soluble
MNNLYPYGAPDSNLYARKQEEYDQQIAEAILAGIKREATAIELYRRLADEAPSEQHQHDIRQALENKQASLTQFTNAYRILTGQQPQLEVDDVSFYRFHEGLQKAYEIEVEGYEEYERSSALTENPHVQHAFWTALNTEYENTTRLYRSLHEEADHRVTDHGPRPFVVNIEDETKRNRAFRRALWTGDHLQVTLMSIQVGEDIGLEIHPHLDQFLRVEEGRGLVQMGHRQDNLHFQEEVFDDYAILIPAGTWHNVRNTGNRPLKLYSIYAPPQHPHGTVHETKAIAMAAEEHHHL	soluble
IVSREAKLQFAYLENFKTKMRSTVSVREGQGVVLLCGPPPHSGELSYAWIFNEYPSFVEEDSRRFVSQETGHLYISKVEPSDVGNYTCVVTSMVTNARVLGSPTPLVLRSDGVMGEYEPKIEVQFPETLPAAKGSTVKLECFALGNPIPQINWRRSDGLPFSSKIKLRKFSGVLEIPNFQQEDAGSYECIAENSRGKNVARGRLTYYAKPHWVQLIKDVEIAVEDSLYWECRASGKPKPSYRWLKNGAALVLEERTQIENGALTISNLSVTDSGMFQCIAENKHGLVYSSAELKVVASAPDFSKNPMKKLVQVQVGSLVSLDCKPRASPRALSSWKKGDVSVQEHERISLLNDGGLKIANVTKADAGTYTCMAENQFGKANGTTHLVVTEPTRITLAPSNMDVSVGESVILPCQVQHDPLLDIIFTWYFNGALADFKKDGSHFEKVGGSSSGDLMIRNIQLKHSGKYVCMVQTGVDSVSSAADLIVRGSPGPPENVKVDEITDTTAQLSWKEGKDNHSPVISYSIQARTPFSVGWQTVTTVPEVIDGKTHTATVVELNPWVEYEFRVVASNKIGGGEPSLPSEKVRTEEAVPEVPPSEVNGGGGSRSELVITWDPVPEELQNGEGFGYVVAFRPLGVTTWIQTVVTSPDTPRYVFRNESIVPYSPYEVKVGVYNNKGEGPFSPVTTVFSAEEEPTVAPSQVSANSLSSSEIEVSWNTIPWKLSNGHLLGYEVRYWNGGGKEESSSKMKVAGNETSARLRGLKSNLAYYTAVRAYNSAGAGPFSATVNVTTKKTPPSQPPGNVVWNATDTKVLLNWEQVKAMENESEVTGYKVFYRTSSQNNVQVLNTNKTSAELVLPIKEDYIIEVKATTDGGDGTSSEQIRIPRITSMDARGSTSAISNVHPMSSYMPIVLFLIVYVLW	soluble
NIYDVAHDLDKGIRETPEFISLQDAYREVNENADAKAKFERFRDVQVTIQEKQMTGQEIDDETVNVAQQVAQEVQENELIVKLMEKEQAMSTIINDLNRIIMTPLQDLYNVA	not soluble
MLKKFFLPDEFVKNIFHITPEKLKERNVKGIITDLDNTLVEWDRPNATPRLIEWFEEMKEHGIKVTIVSNNNERRVKLFSEPLGIPFIYKARKPMGKAFNRAVRNMELKKEDCVVIGDQLLTDVLGGNRNGYHTILVVPVASSDGFITRFNRQVERRILSALKRKGHIQWEELEHHHHHH	soluble
MLSCELYRMSTYSTFPAGVPVSERSLARAGFYYTGVNDKVKCFCCGLMLDNWKRGDSPTEKHKKLYPSCRFVQSL	soluble
MASSAVSLQSISMTTLNNLSCNQQFHRSSLLGSSKSFQNLGISSNGSDFSYPSSFTAKKNLTASRALSQNGNIENPRPSKVQELSVYEINELDRHSPKILKNAFSLMFGLGDLVPFTNKLYTGDLKKRVGITAGLCVVIEHVPEKKGERFEATYSFYFGDYGHLSVQGPYLTYEDSFLAITGGAGIFEGAYGQVKLQQLVYPTKLFYTFYLKGLANDLPLELTGTPVPPSKDIEPAPEAKALEPSGVISNYTN	soluble
MAHHHHHHMQRWPCRRCCRAATLGSRTFVLVRRRAPSAFITTASHASSGAAPPWTVAHQRVCIIIPPVEKLTTPPSPRLSRRYVDSQTLDDSRTQQADAQEPDHFRFAIKNSERGLLDHGVTPDAIAFIAEAEEEYRASSSYLHDRPGGAGMPESETHVDEVTGQQTTTTRIAAPFGETYVPSNRERFAERQRVGELSRQLNLVDKPFMLDEHAQLNLRKERQLCELLASPMPQLAKADEVAHFLLNGVYAQNLALQPRSCESVMLLYSHASFLRRLEGPTKQLTGRAHDAARLAAPSSGADTRAVPRTPQDVPFLDDMRRLYTHQKRCFISPTPLSLEHFMTTLSVITAPSTTAFHLANRLLLDADKFVLLPTRTTYTAYFTVCHVNNAMQFAMARYTDAVQALQLPVDAPMLTALLKGLNESGYVEEAVSLLSRIGHVAVSTPLLNASLETLLLSEQALACFSLYDAMRGSSVKPNAETYTLLLLACEKSQQWRRVTAILAEMQRRRVRGNEQTLNLLLKGLLQERLHSYAAQLYHTMLAKKVPLWPALELGVRPLLR	not soluble
MGSDKIHHHHHHMNAVLPRLAMRDIVKSFGSVRVLDGVSLDVMPGEIVALLGSNGAGKSTLMKILTANYTKNAGDIRVNDTLVDFASPRDAARVGITFLPQEISVFPELSVAENICMSADSKGTVDWSGMARRSAAVLDDLGFGHLSPDMLVADLPVAERRIIEIARALEGQADILVMDEPTASLSEQESEQIFTILRRLKDRGTSIVYISHYLKEVFEISDRIVVLRDGLNAGEFDPTTADVTKVVGAMLGKAAGSMFDDRDPLPASAPVVFTCAGLTLPGVIEDVSFDLRAGEILGIFGLIGSGVEVLGRAIFGTQGRPPAGAMTLNGTPYTPVSPRKGKEAGIGFVTAERKTDGIMADMSVRENIVAAFQSDLGHGPFTSPAREAAHTLDWIEKLGIKTSGPEQAIRLLSGGNQQKVCVARWLNPKVKMLILEEPTRGVDVGARREIYSHLVDFARSGLAVLVLSSDVEEVAGLSDRSLVIDRGRILAEFGRGATPGDLMAASAQSEHHD	not soluble
MKKHVMLVKPFSLEDEKDSENTPPNLIQRILSLFKNVRPGSDLTNFQLPPQMNLARSQLQCYGEIVYSFDGHDLLGECSRRDKPIERMKAMVTWYISTLRPLIFGLAPYNPVIGETHHVSNGHINVLAEQISHHPPVSALHATHEKENVDVLLCQYFTPKFRGAYVDVEVKGKRVVKLLNHKETYEMNQPKLLMTFLPAMGAHWAGKIVIKCPETGLGAELQLLSDSFLSRFTGNNKRAIKGKIFESSSRKQLYEISGHWDRTVTAKNTKTGQLEVIYKASENIAKLKTPIVENLQEVSESESAVVWGEVSEGIVTNNWEKAREAKRDVEEKQRESLRKRKASGQSWIPKHFSVARTGKDWDCVPLQPTVPRAPIVVPL	soluble
MSLTQVPAGQFTATKNLRPAAKPGKDVVLRVYSDFQCPYCQKLELETMPALLRALPDDVRVEFHQFPLEQIHPLARPAAEASECAAQQGRFWDYKDALFRDRSWLQNNPNETFLRLAGDLKLDPGKFKDCLALRGGKAGVDAGLAEAQQLGLNATPTVFVDGYRVGNPFDTAAVLQLIDVARATREGHHHHHH	soluble
MSLSLENFGNFLTLDEKHSFIKKYFKEFYTKDFKLFASKDKHYRTRAELSFYHENDTLFYAMFDPKSKKKYIIEYLDFADEKICAFMPRLLEYLRQDNKLKEKLFGVEFLTTKQELSITLLYHKNIEDIKSNLENLSNILHINLIARSKGKKLIFKTENLRQTLNIQDRKIFYEFNNDCFIQPNTAINEKMITWVCEILNTQKRMDLLELYCGYGNFTLALAPFFFKILATEISKSNINFALKNCELNNTTNIHFARLSSEELSLAIKKEREFFRLKDIRLDDFNFSHVLVDPPRAGLDKSVIDLIKKYGNIIYISCNPMTLKENLKELSLTHRVEEFALFDQFVNTPHLECGVFLSKVEGHHHHHH	soluble
MRDNLVEQIISDVMNKQTDISPEAKTAANFAGCGITEFVGTALGHTIGLVIANVDNQLHEVMNIDKKYRSIGILGARTGAGPQIFAADEAIKATNSEIISIELARDTEGGGGHGCLIIFGASDVSDVRRAVEVALSEIERTMGDVYGSSAGHLEFQYTARASYALNKALGAPIGKSFGMTCASPAAIGLVIADAAAKSAVIDPVGYASPSQGTSFSNEVIFTFSGDSGAVRQAVIAAREVGLQLLSTLDPVEIKSTTTPYI	soluble
MLSIHDPLLIFTDLDGTLLNSHTFEWQPAAPWLTRLHESGVPVILCSSKTAAEMLQLQTTLNLQGLPLIAENGAVIQLDVHWEDHPNYPRLIAGISHNEIRLVLHKLREKEQFKFTTFDDVDDQVISEWTGLNRAQSALTRLHEASVSLIWRDSDERMAQFVARLNDLGLQFVHGARFWHVLDASAGKDQAANWLIEAYRRQWRARPLTLGLGDGPNDAPLLDVMDYAVVVKGLNREGVHLRNDDPQRVYRSQNEGPDGWREGMDYFFSRSLEHHHHHH	soluble
MGSDKIHHHHHHMTPADNEIAEQQNFVDFNSILYTPQYAAGCFGLTTRRLMAIEEEHGLDIKRIKRGSSTSRVYTASDLFNIAALRRSLGHLKPIGRQIVASTFVPKGGTAKTTTAVNLAISAQFAGIKTLIIDNDPQGDTSNMLGYDPDLSPDDLVDMNIPSDRLVDGHFGNLLSPLLRMKPFSEKVLADVIKKPFGENGIHLIPADTYLEDLAVALDASNNSDMWYARFIEDANAGKVPGCDLSVYDLIIIDNAPAGSRLTKNSVAASDLLLCPVRMDKFSFRALLRLHEWCARFAKEYSYAPALMAIPTMFIRKRARLLANLQSLNTLFPGQVTEEKIYFSEDYSKSLDDGIPLMLWKRANSQTIDTARLVFGEILQKIRSLAA	not soluble
MQSAELKQFVVDKIDDLKARDVVVIDVSNQSNITDYMVICSGTSKTHVKAIAENLVIEAKAAGIPPIGIEGRDSSEWVLVDMGNVILHVMQDQTRDFYQLEKLWSEKQA	soluble
